According to publication PMC2930322 (PLoS ONE, 2010):

Target: the molecule itself
Test: atomic force microscopy; assembled 1 h at 37°C in 25 mM Tris-HCl (pH 7.5) with NaCl (vimentin 0.1 mg/ml, 125 mM NaCl; K5/K14 0.1 mg/ml, 50-100 mM NaCl), adsorbed to mica, flushed with water, dried, imaged in air in acoustic mode

B1: Human K5/K14 heterodimers (complex)
chain 1: MSRQSSVSFRSGGSRSFSTASAITPSVSRTSFTSVSRSGGGGGGGFGRVSLAGACGVGGYGSRSLYNLGGSKRISISTSGGSFRNRFGAGAGGGYGFGGGAGSGFGFGGGAGGGFGLGGGAGFGGGFGGPGFPVCPPGGIQEVTVNQSLLTPLNLQIDPSIQRVRTEEREQIKTLNNKFASFIDKVRFLEQQNKVLDTKWTLLQEQGTKTVRQNLEPLFEQYINNLRRQLDSIVGERGRLDSELRNMQDLVEDFKNKYEDEINKRTTAENEFVMLKKDVDAAYMNKVELEAKVDALMDEINFMKMFFDAELSQMQTHVSDTSVVLSMDNNRNLDLDSIIAEVKAQYEEIANRSRTEAESWYQTKYEELQQTAGRHGDDLRNTKHEISEMNRMIQRLRAEIDNVKKQCANLQNAIADAEQRGELALKDARNKLAELEEALQKAKQDMARLLREYQELMNTKLALDVEIATYRKLLEGEECRLSGEGVGPVNISVVTSSVSSGYGSGSGYGGGLGGGLGGGLGGGLAGGSSGSYYSSSSGGVGLGGGLSVGGSGFSASSGRGLGVGFGSGGGSSSSVKFVSTTSSSRKSFKS
chain 2: MTTCSRQFTSSSSMKGSCGIGGGIGGGSSRISSVLAGGSCRAPSTYGGGLSVSSSRFSSGGACGLGGGYGGGFSSSSSSFGSGFGGGYGGGLGAGLGGGFGGGFAGGDGLLVGSEKVTMQNLNDRLASYLDKVRALEEANADLEVKIRDWYQRQRPAEIKDYSPYFKTIEDLRNKILTATVDNANVLLQIDNARLAADDFRTKYETELNLRMSVEADINGLRRVLDELTLARADLEMQIESLKEELAYLKKNHEEEMNALRGQVGGDVNVEMDAAPGVDLSRILNEMRDQYEKMAEKNRKDAEEWFFTKTEELNREVATNSELVQSGKSEISELRRTMQNLEIELQSQLSMKASLENSLEETKGRYCMQLAQIQEMIGSVEEQLAQLRCEMEQQNQEYKILLDVKTRLEQEIATYRRLLEGEDAHLSSSQFSSGSQSSRDVTSSSRQIRTKVMDVHDGKVVSTHEQVLRTKN
notes: keratin K5 (keratin, type II cytoskeletal 5), human; keratin K14 (keratin, type I cytoskeletal 14), human; Named only as a heterodimer; the two chains are never tested against each other or one by one; also called keratin K5/K14; K5/K14 subunits; source: expressed and purified as described [17]; stored in 6 M urea, dialysed into 2 mM Tris-HCl (pH 9), 1 mM DTT
  binding result: binds
